The values that follow come from the supplement of paper PMC10567573.

The chains are these.
B1: CPXM2 (parent)
chain: EILGCPLPDPNNYYHRRNEMTTTD
B2: FUT8 (parent)
chain: NWRYATGGWETVFRPVSETCTDRS
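Also: lentivirally expressed fusions sorted by FACS into six bins by GFP to DsRed ratio, PSI derived from sequencing read proportions per bin multiplied by bin number.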

The first series covers variants of B1. As to the kind of experiment: protein stability index of a GFP-peptide fusion (GPS, HEK-293T) (PSI 1-6); higher = more stable. Particulars: c terminus: a fixed tail appended.
VILGCPLPDPNNYYHRRNEMTTTD [E1V]: the protein stability index stood at 2.4.
Take TILGCPLPDPNNYYHRRNEMTTTD [E1T]: the protein stability index came to 3.69.
The same measure, in the same setting: with FILGCPLPDPNNYYHRRNEMTTTD [E1F] the figure was 1.83.
Same read-out and setting: with IILGCPLPDPNNYYHRRNEMTTTD [E1I] the figure was 2.52; with NILGCPLPDPNNYYHRRNEMTTTD [E1N], 3.42.
Take DILGCPLPDPNNYYHRRNEMTTTD [E1D]: the protein stability index came to 3.8.
For the variant AILGCPLPDPNNYYHRRNEMTTTD [E1A], the protein stability index was found to be 3.2.
Still for that read-out and setting: the same measure for PILGCPLPDPNNYYHRRNEMTTTD [E1P]: 4.63; for MILGCPLPDPNNYYHRRNEMTTTD [E1M]: 2.23; for LILGCPLPDPNNYYHRRNEMTTTD [E1L]: 2.63.
Still for that read-out and setting: the same measure for WILGCPLPDPNNYYHRRNEMTTTD [E1W]: 1.86; for SILGCPLPDPNNYYHRRNEMTTTD [E1S]: 3.54.
Still for that read-out and setting: with KILGCPLPDPNNYYHRRNEMTTTD [E1K] the figure was 3.18.
For the variant HILGCPLPDPNNYYHRRNEMTTTD [E1H], the protein stability index worked out at 3.16.
For the variant CILGCPLPDPNNYYHRRNEMTTTD [E1C], the protein stability index was 2.83.
Still for that read-out and setting: with YILGCPLPDPNNYYHRRNEMTTTD [E1Y] the figure was 2.29; with GILGCPLPDPNNYYHRRNEMTTTD [E1G], 3.58; with QILGCPLPDPNNYYHRRNEMTTTD [E1Q], 3.02.
Consider RILGCPLPDPNNYYHRRNEMTTTD [E1R], for which the protein stability index was 3.59.
As to EILDCPLPDPNNYYHRRNEMTTTD [G4D], the protein stability index was determined as 3.96.
With EILFCPLPDPNNYYHRRNEMTTTD [G4F], the protein stability index turned out to be 2.69.
Still for that read-out and setting: the same measure for EILCCPLPDPNNYYHRRNEMTTTD [G4C]: 3.47; for EILHCPLPDPNNYYHRRNEMTTTD [G4H]: 3.71.
Same read-out and setting: the same measure for EILECPLPDPNNYYHRRNEMTTTD [G4E]: 4.09; for EILMCPLPDPNNYYHRRNEMTTTD [G4M]: 3.15.
Same read-out and setting: with EILRCPLPDPNNYYHRRNEMTTTD [G4R] the figure was 3.73.
Regarding EILACPLPDPNNYYHRRNEMTTTD [G4A], the protein stability index is 3.35.
The same measure, in the same setting: the same measure for EILNCPLPDPNNYYHRRNEMTTTD [G4N]: 2.93.
Same read-out and setting: with EILLCPLPDPNNYYHRRNEMTTTD [G4L] the figure was 2.69; with EILPCPLPDPNNYYHRRNEMTTTD [G4P], 4.03; with EILKCPLPDPNNYYHRRNEMTTTD [G4K], 3.39.
On the same count and under the same terms, with EILICPLPDPNNYYHRRNEMTTTD [G4I] the figure was 2.72; with EILQCPLPDPNNYYHRRNEMTTTD [G4Q], 3.5.
On to EIKGCPLPDPNNYYHRRNEMTTTD [L3K], for which the protein stability index is 4.48.
Still for that read-out and setting: the same measure for EIHGCPLPDPNNYYHRRNEMTTTD [L3H]: 4.16; for EITGCPLPDPNNYYHRRNEMTTTD [L3T]: 3.99; for EICGCPLPDPNNYYHRRNEMTTTD [L3C]: 4.07.
As to EIWGCPLPDPNNYYHRRNEMTTTD [L3W], the protein stability index turned out to be 3.84.
The same measure, in the same setting: the same measure for EIDGCPLPDPNNYYHRRNEMTTTD [L3D]: 4.32; for EIAGCPLPDPNNYYHRRNEMTTTD [L3A]: 4.09; for EIEGCPLPDPNNYYHRRNEMTTTD [L3E]: 4.39.
The same measure, in the same setting: with EIPGCPLPDPNNYYHRRNEMTTTD [L3P] the figure was 4.7.
Still for that read-out and setting: the same measure for EISGCPLPDPNNYYHRRNEMTTTD [L3S]: 4.41; for EIIGCPLPDPNNYYHRRNEMTTTD [L3I]: 3.58.
On to EIGGCPLPDPNNYYHRRNEMTTTD [L3G], for which the protein stability index is 4.45.
Same read-out and setting: the same measure for EIRGCPLPDPNNYYHRRNEMTTTD [L3R]: 4.3; for EIVGCPLPDPNNYYHRRNEMTTTD [L3V]: 3.85.
Regarding EIMGCPLPDPNNYYHRRNEMTTTD [L3M], the protein stability index came out at 4.05.
Same read-out and setting: the same measure for EIFGCPLPDPNNYYHRRNEMTTTD [L3F]: 3.38; for EIQGCPLPDPNNYYHRRNEMTTTD [L3Q]: 4.13; for EIYGCPLPDPNNYYHRRNEMTTTD [L3Y]: 3.7.
Turning to EINGCPLPDPNNYYHRRNEMTTTD [L3N], the protein stability index is 3.78.
On the same count and under the same terms, with EGLGCPLPDPNNYYHRRNEMTTTD [I2G] the figure was 5.13; with EHLGCPLPDPNNYYHRRNEMTTTD [I2H], 4.64.
Same read-out and setting: the same measure for EVLGCPLPDPNNYYHRRNEMTTTD [I2V]: 3.79.
In the case of ERLGCPLPDPNNYYHRRNEMTTTD [I2R], the protein stability index came out at 4.28.
The same measure, in the same setting: the same measure for EYLGCPLPDPNNYYHRRNEMTTTD [I2Y]: 3.77.
With EKLGCPLPDPNNYYHRRNEMTTTD [I2K], the protein stability index was 4.54.
On the same count and under the same terms, the same measure for EALGCPLPDPNNYYHRRNEMTTTD [I2A]: 4.51; for EMLGCPLPDPNNYYHRRNEMTTTD [I2M]: 4.04; for ECLGCPLPDPNNYYHRRNEMTTTD [I2C]: 3.98.
Same read-out and setting: with ENLGCPLPDPNNYYHRRNEMTTTD [I2N] the figure was 4.55; with EWLGCPLPDPNNYYHRRNEMTTTD [I2W], 3.82; with EFLGCPLPDPNNYYHRRNEMTTTD [I2F], 3.75.
Consider ETLGCPLPDPNNYYHRRNEMTTTD [I2T], for which the protein stability index worked out at 4.32.
As to EQLGCPLPDPNNYYHRRNEMTTTD [I2Q], the protein stability index is 4.76.
Take ELLGCPLPDPNNYYHRRNEMTTTD [I2L]: the protein stability index is 3.34.
The same measure, in the same setting: the same measure for EDLGCPLPDPNNYYHRRNEMTTTD [I2D]: 4.86; for EPLGCPLPDPNNYYHRRNEMTTTD [I2P]: 4.87; for ESLGCPLPDPNNYYHRRNEMTTTD [I2S]: 4.51.
The same measure, in the same setting: the same measure for EELGCPLPDPNNYYHRRNEMTTTD [I2E]: 4.91.

In the next series the parent is B2. The series is described as above. Particulars: c terminus: a fixed tail appended.
For NWRYATGGWETVFRPVSETCTDES [R23E], the protein stability index was 1.75.
With NWRYATGGWETVFRPVSETCTDMS [R23M], the protein stability index stood at 2.34.
Consider NWRYATGGWETVFRPVSETCTDFS [R23F], for which the protein stability index came to 1.77.
On the same count and under the same terms, the same measure for NWRYATGGWETVFRPVSETCTDGS [R23G]: 1.6; for NWRYATGGWETVFRPVSETCTDIS [R23I]: 1.21.
Same read-out and setting: the same measure for NWRYATGGWETVFRPVSETCTDAS [R23A]: 2.36; for NWRYATGGWETVFRPVSETCTDTS [R23T]: 2.02.
On the same count and under the same terms, with NWRYATGGWETVFRPVSETCTDKS [R23K] the figure was 1.92.
With NWRYATGGWETVFRPVSETCTDWS [R23W], the protein stability index was 1.91.
NWRYATGGWETVFRPVSETCTDNS [R23N]: the protein stability index was determined as 1.44.
As for NWRYATGGWETVFRPVSETCTDPS [R23P], the protein stability index amounted to 2.08.
On the same count and under the same terms, with NWRYATGGWETVFRPVSETCTDYS [R23Y] the figure was 2.49; with NWRYATGGWETVFRPVSETCTDHS [R23H], 3.12; with NWRYATGGWETVFRPVSETCTDSS [R23S], 1.56.
For NWRYATGGWETVFRPVSETCTDDS [R23D], the protein stability index worked out at 2.41.
Same read-out and setting: with NWRYATGGWETVFRPVSETCTDVS [R23V] the figure was 2.89; with NWRYATGGWETVFRPVSETCTDLS [R23L], 3.42; with NWRYATGGWETVFRPVSETCTDRQ [S24Q], 2.72.
The same measure, in the same setting: the same measure for NWRYATGGWETVFRPVSETCTDRM [S24M]: 1.96; for NWRYATGGWETVFRPVSETCTDRA [S24A]: 1.69; for NWRYATGGWETVFRPVSETCTDRH [S24H]: 1.64.
On the same count and under the same terms, with NWRYATGGWETVFRPVSETCTDRT [S24T] the figure was 2.03.
For NWRYATGGWETVFRPVSETCTDRL [S24L], the protein stability index is 2.3.
